Measured values from the Human Domainome abundance scans (Beltran et al. 2025).
± gives the uncertainty stated by the source.

B1: Double-stranded RNA-specific adenosine deaminase, residues 296 to 358; numbered along this chain, P55265 (parent)
chain: MAEIKEKICDYLFNVSDSSALNLAKNIGLTKARDINAVLIDMERQGDVYRQGTTPPIWHLTDK

Variants of: B1
Experiment: abundance fitness (aPCA) (normalised: wild type 0, dead -1); higher = more abundant; growth selection in yeast, the domain comes from the species named
Settings: Homo sapiens

Row | Variant | abundance fitness
1 | L39S | -0.265 ± 0.052
2 | L39M | -0.294 ± 0.059
3 | L39V | -0.589 ± 0.08
4 | L39P | -0.385 ± 0.078
5 | L39H | -0.44 ± 0.13
6 | L39F | -0.812 ± 0.09
7 | L39A | -0.148 ± 0.059
8 | L39C | -0.528 ± 0.1
9 | L39I | -0.756 ± 0.094
10 | L39G | -0.176 ± 0.05
11 | L39W | -0.966 ± 0.13
12 | L39Y | -0.678 ± 0.087
13 | L39K | -0.096 ± 0.059
14 | L39D | -0.125 ± 0.086
15 | L39R | -0.365 ± 0.055
16 | L39Q | -0.244 ± 0.066
17 | L39T | -0.461 ± 0.064
18 | L39N | -0.393 ± 0.089
19 | G28Q | -0.606 ± 0.14
20 | G28K | -0.229 ± 0.081
21 | G28N | -0.43 ± 0.11
22 | G28I | -1.01 ± 0.15
23 | G28A | -0.453 ± 0.056
24 | G28E | -0.15 ± 0.065

Row | Variant | abundance fitness
25 | G28R | -0.802 ± 0.072
26 | G28H | -0.508 ± 0.097
27 | G28Y | -0.982 ± 0.13
28 | G28S | -0.474 ± 0.055
29 | G28V | -0.713 ± 0.069
30 | G28T | -0.655 ± 0.076
31 | G28M | -0.805 ± 0.11
32 | G28P | -0.234 ± 0.078
33 | G28L | -0.97 ± 0.093
34 | G28F | -0.796 ± 0.16
35 | G28W | -0.886 ± 0.11
36 | G28D | -0.186 ± 0.058
37 | M42K | -0.303 ± 0.08
38 | M42G | -0.485 ± 0.062
39 | M42A | -0.479 ± 0.056
40 | M42T | -0.636 ± 0.074
41 | M42L | -0.369 ± 0.047
42 | M42F | -0.965 ± 0.14
43 | M42S | -0.613 ± 0.061
44 | M42D | -0.551 ± 0.082
45 | M42Q | -0.335 ± 0.057
46 | M42V | -0.774 ± 0.079
47 | M42C | -0.742 ± 0.091
48 | M42P | -0.502 ± 0.059

Row | Variant | abundance fitness
49 | M42I | -1.03 ± 0.13
50 | M42E | -0.22 ± 0.078
51 | M42W | -0.795 ± 0.11
52 | M42R | -0.629 ± 0.051
53 | M42N | -0.412 ± 0.12
54 | D41E | 0.223 ± 0.13
55 | D41S | -0.501 ± 0.093
56 | D41L | -0.99 ± 0.11
57 | D41T | -0.445 ± 0.071
58 | D41Y | -1.06 ± 0.24
59 | D41M | -0.539 ± 0.15
60 | D41F | -1.34 ± 0.31
61 | D41A | -0.315 ± 0.062
62 | D41P | -0.421 ± 0.076
63 | D41N | -0.514 ± 0.12
64 | D41V | -1.14 ± 0.2
65 | D41G | -0.348 ± 0.068
66 | D41H | -0.754 ± 0.15
67 | D41W | -1.12 ± 0.19
68 | D41R | -0.73 ± 0.065
69 | D41C | -0.822 ± 0.15
70 | K31T | 0.066 ± 0.055
71 | K31G | -0.049 ± 0.044
72 | K31C | 0.237 ± 0.079

Row | Variant | abundance fitness
73 | K31R | -0.006 ± 0.036
74 | K31Y | 0.173 ± 0.11
75 | K31H | 0.367 ± 0.063
76 | K31F | -0.695 ± 0.13
77 | K31L | -0.53 ± 0.07
78 | K31I | -1.14 ± 0.37
79 | K31V | -0.67 ± 0.066
80 | K31P | 0.041 ± 0.057
81 | K31A | -0.098 ± 0.045
82 | K31D | 0.36 ± 0.1
83 | K31E | 0.251 ± 0.083
84 | K31S | 0.285 ± 0.042
85 | K31N | 0.144 ± 0.092
86 | K31Q | 0.097 ± 0.066
87 | K31W | -0.635 ± 0.078
88 | L29I | -0.025 ± 0.04
89 | L29V | -0.1 ± 0.054
90 | L29T | -0.167 ± 0.062
91 | L29D | 0.035 ± 0.058
92 | L29N | 0.041 ± 0.054
93 | L29R | -0.356 ± 0.076
94 | L29G | 0.006 ± 0.058
95 | L29A | -0.103 ± 0.1
96 | L29K | -0.54 ± 0.29

Row | Variant | abundance fitness
97 | L29M | 0.154 ± 0.096
98 | L29C | -0.125 ± 0.049
99 | L29W | -0.633 ± 0.23
100 | L29E | 0.045 ± 0.11
101 | L29H | -0.325 ± 0.06
102 | L29Q | -0.026 ± 0.092
103 | L29P | -0.336 ± 0.1
104 | L29S | -0.17 ± 0.045
105 | L29Y | -0.136 ± 0.052
106 | L29F | -0.107 ± 0.051
107 | R44N | -0.056 ± 0.094
108 | R44W | -0.705 ± 0.14
109 | R44S | -0.173 ± 0.046
110 | R44I | -0.26 ± 0.092
111 | R44A | 0.079 ± 0.05
112 | R44H | -0.274 ± 0.13
113 | R44M | -0.27 ± 0.061
114 | R44T | -0.043 ± 0.091
115 | R44C | -0.6 ± 0.1
116 | R44Q | 0.037 ± 0.061
117 | R44D | -0.175 ± 0.13
118 | R44K | 0.067 ± 0.064
119 | R44G | -0.334 ± 0.05
120 | R44Y | -0.614 ± 0.13

Row | Variant | abundance fitness
121 | R44E | -0.126 ± 0.057
122 | R44L | -0.373 ± 0.055
123 | E43H | -0.798 ± 0.2
124 | E43N | -0.697 ± 0.12
125 | E43L | -0.93 ± 0.078
126 | E43T | -1.07 ± 0.14
127 | E43A | -0.66 ± 0.057
128 | E43Y | -0.725 ± 0.084
129 | E43M | -0.848 ± 0.12
130 | E43G | -0.508 ± 0.093
131 | E43V | -0.873 ± 0.076
132 | E43Q | -0.447 ± 0.093
133 | E43R | -0.927 ± 0.067
134 | E43D | -0.665 ± 0.084
135 | E43P | -0.729 ± 0.077
136 | E43F | -0.748 ± 0.14
137 | E43I | -1.13 ± 0.19
138 | E43S | -0.841 ± 0.08
139 | V38D | -0.254 ± 0.17
140 | V38H | -0.31 ± 0.11
141 | V38K | -0.387 ± 0.067
142 | V38P | -0.24 ± 0.056
143 | V38F | -0.952 ± 0.21
144 | V38Y | -1.27 ± 0.39

Row | Variant | abundance fitness
145 | V38T | -0.11 ± 0.057
146 | V38E | -0.13 ± 0.06
147 | V38I | 0.035 ± 0.07
148 | V38W | -0.739 ± 0.081
149 | V38L | -0.253 ± 0.038
150 | V38A | 0.343 ± 0.061
151 | V38G | -0.128 ± 0.06
152 | V38M | -0.488 ± 0.075
153 | V38C | 0.12 ± 0.085
154 | V38R | -0.528 ± 0.049
155 | V38S | -0.316 ± 0.057
156 | V38N | -0.195 ± 0.11
157 | V38Q | -0.276 ± 0.075
158 | D34S | -0.397 ± 0.055
159 | D34G | -0.592 ± 0.067
160 | D34Y | -0.694 ± 0.11
161 | D34A | -0.243 ± 0.054
162 | D34P | -0.541 ± 0.073
163 | D34F | -0.75 ± 0.09
164 | D34K | -0.518 ± 0.079
165 | D34R | -0.699 ± 0.055
166 | D34T | -0.724 ± 0.11
167 | D34Q | -0.283 ± 0.073
